Results from US20150031617A1, “USE OF THYMOSIN ALPHA FOR TREATMENT OF PURULENT RHINOSINUSITIS” (SCICLONE PHARMACEUTICALS, INC., priority 2012, published 2015).

What was measured:
[1] = test system: monocytes and granulocytes of patients with purulent rhinosinusitis; experiment: monocyte and granulocyte polarization in vitro in patients with purulent rhinosinusitis; type: cell-based, human; conditions: 10 patients; thymalfasin, 0.1 mg/ml; FIG. 1
Protocol: The results in 10 patients were evaluated. The monocyte and granulocyte polarizations in 10 patients were evaluated. Initially, 3 to 4 of the patients started with decreased polarization. […] (See, FIG. 1.) As a control, N-formylmethionyl-leucyl-phenylalanine (fMLP)-induced polarization of healthy donor monocytes. (See, FIG. 2.) Concentrations were TP-1, 1 mg/ml, thymalfasin, 0.1 mg/ml and fMLP, 10^−8M.

[2] = cited from earlier work

(N-acetyl)-Ser-Asp-Ala-Ala-Val-Asp-Thr-Ser-Ser-Glu-Ile-Thr-Thr-Lys-Asp-Leu-Lys-Glu-Lys-Lys-Glu-Val-Val-Glu-Glu-Ala-Glu-Asn-OH (Ac-SDAAVDTSSEITTKDLKEKKEVVEEAEN-OH) [TA1]
monocyte and granulocyte polarization in vitro [1]: worked excellently in improving and restoring the polarization in vitro
Peak plasma levels ([2]; after injection of 3.2 mg of TA1 (about 40 μg/kg)): approximately 100 ng/ml
TA1 circulating in serum ([2]; circulating serum level): 0.1 to 1.0 ng/mL
half-life in the circulation ([2]; in the circulation): about 2 hours
